ChEMBL document CHEMBL1126199, “(R)-(-)- and (S)-(+)-adenallene: synthesis, absolute configuration, enantioselectivity of antiretroviral effect, and enzymic deamination” (J Med Chem, 1992)
“And” between values parts separate entries of the source, which are not always exact repeats. Identical values can stand only once.

Substrate: Nc1ncnc2c1ncn2C=C=CCO
Experiment: Vmax by adenosine deaminase

B1: Adenosine deaminase (Bos taurus), P56658 (protein)
chain: MAQTPAFNKPKVELHVHLDGAIKPETILYYGRKRGIALPADTPEELQNIIGMDKPLSLPEFLAKFDYYMPAIAGCREAVKRIAYEFVEMKAKDGVVYVEVRYSPHLLANSKVEPIPWNQAEGDLTPDEVVSLVNQGLQEGERDFGVKVRSILCCMRHQPSWSSEVVELCKKYREQTVVAIDLAGDETIEGSSLFPGHVKAYAEAVKSGVHRTVHAGEVGSANVVKEAVDTLKTERLGHGYHTLEDATLYNRLRQENMHFEVCPWSSYLTGAWKPDTEHPVVRFKNDQVNYSLNTDDPLIFKSTLDTDYQMTKNEMGFTEEEFKRLNINAAKSSFLPEDEKKELLDLLYKAYGMPSPASAEQCL
- Vmax: 0.41 µM/min and 0.52 µM/min
